Data on nine molecules can be found in patent US20200339690A1.

Experiment [1] concerns the target human LILRB2 (human) (UniProt Q8N423). Nature of the experiment: BLI Octet sandwich binning; competitor (antibody #1 on sensor) J-11.
For experiment [2] the target is unchanged. In words: BLI Octet sandwich binning; competitor (antibody #1 on sensor) J-16. On the technique in general: BLI is a label-free optical method that tracks binding on a fibre tip over time.
For experiment [3] the target is unchanged. In words: BLI Octet sandwich binning; competitor (antibody #1 on sensor) J-04.
Experiment [4] shares this target. Nature of the experiment: BLI Octet sandwich binning; competitor (antibody #1 on sensor) J-07.
For experiment [5], the target named is human LILRA1 (human) (UniProt O75019). Nature of the experiment: flow cytometry, LILRA1 CHOs. (In general: A flow cytometer gives signals particle by particle.)
human LILRA1 (human), sequence (O75019 17-489 limits assumed): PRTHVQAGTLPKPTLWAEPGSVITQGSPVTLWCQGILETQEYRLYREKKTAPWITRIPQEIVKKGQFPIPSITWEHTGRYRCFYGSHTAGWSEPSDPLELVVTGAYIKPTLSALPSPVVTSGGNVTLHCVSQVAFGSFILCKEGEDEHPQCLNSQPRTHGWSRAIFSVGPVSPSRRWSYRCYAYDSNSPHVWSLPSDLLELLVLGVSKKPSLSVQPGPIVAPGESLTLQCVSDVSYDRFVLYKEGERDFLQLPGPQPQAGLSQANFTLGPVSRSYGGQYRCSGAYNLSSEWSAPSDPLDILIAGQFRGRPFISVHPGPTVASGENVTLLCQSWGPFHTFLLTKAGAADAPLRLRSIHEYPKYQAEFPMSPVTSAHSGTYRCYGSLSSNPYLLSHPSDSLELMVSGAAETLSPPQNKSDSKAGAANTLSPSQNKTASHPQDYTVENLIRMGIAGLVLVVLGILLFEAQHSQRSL
The target in experiment [6] is human LILRB2 (human) (UniProt Q8N423). Nature of the experiment: BLI Octet sandwich binning; competitor (antibody #1 on sensor) J-19.
For experiment [7] the target is unchanged. Nature of the experiment: BLI Octet sandwich binning; competitor (antibody #1 on sensor) J-17.
Experiment [8] shares this target. Nature of the experiment: BLI Octet sandwich binning; competitor (antibody #1 on sensor) J-03.
Experiment [9] addresses human LILRA4 (human) (UniProt P59901). In words: flow cytometry, LILRA4 CHOs.
Experiment [10] concerns the target human LILRA5 (human) (UniProt A6NI73). In words: flow cytometry, LILRA5 CHOs.
In experiment [11] the target is human LILRB4 (human) (UniProt Q8NHJ6). Nature of the experiment: flow cytometry, LILRB4 CHOs.
Experiment [12] concerns the target human LILRB2 (human) (UniProt Q8N423). Nature of the experiment: SPR, SierraSensor MASS-2; antibody captured on anti-human Fc chip, LILRB2 65 to 0.089 nM, triplicates.
Experiment [13] has the same target. In words: BLI ForteBio Octet Red96; antibody on anti-human capture sensor, LILRB2 at 50 nM and 5 nM.
For experiment [14] the target is unchanged. In words: SPR, SierraSensor MASS-2; antibody captured on anti-human Fc chip, LILRB2 65 to 0.089 nM, duplicates; the reference itself. For orientation: SPR reads the build-up and loss of mass on a sensor chip optically.
For experiment [15] the target is unchanged. Nature of the experiment: SPR, SierraSensor MASS-2; antibody captured on anti-human Fc chip, LILRB2 65 to 0.089 nM, duplicates.

human LILRA5 (human), sequence (A6NI73 42-299 limits assumed): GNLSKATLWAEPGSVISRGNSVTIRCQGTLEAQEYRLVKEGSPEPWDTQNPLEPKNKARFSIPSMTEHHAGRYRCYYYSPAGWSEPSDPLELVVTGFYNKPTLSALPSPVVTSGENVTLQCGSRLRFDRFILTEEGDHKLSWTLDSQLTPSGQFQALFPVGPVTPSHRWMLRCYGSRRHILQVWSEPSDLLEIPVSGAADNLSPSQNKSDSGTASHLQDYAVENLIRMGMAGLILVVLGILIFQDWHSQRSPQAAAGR
human LILRA4 (human), sequence (P59901 other isoform, or with tags, fused parts or gaps limits assumed): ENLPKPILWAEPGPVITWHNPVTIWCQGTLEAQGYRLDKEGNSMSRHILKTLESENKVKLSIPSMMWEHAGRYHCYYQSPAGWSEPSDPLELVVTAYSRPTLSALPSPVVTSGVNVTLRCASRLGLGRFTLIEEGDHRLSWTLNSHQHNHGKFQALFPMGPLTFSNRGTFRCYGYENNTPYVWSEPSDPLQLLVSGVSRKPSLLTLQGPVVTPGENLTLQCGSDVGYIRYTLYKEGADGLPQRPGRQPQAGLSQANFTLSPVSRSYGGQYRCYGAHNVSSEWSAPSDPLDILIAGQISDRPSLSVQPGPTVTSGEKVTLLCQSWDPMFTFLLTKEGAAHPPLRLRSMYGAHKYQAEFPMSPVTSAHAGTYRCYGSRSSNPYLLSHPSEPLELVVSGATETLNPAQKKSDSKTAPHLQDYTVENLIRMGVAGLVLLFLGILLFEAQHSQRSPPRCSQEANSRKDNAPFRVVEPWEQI

B1: J-17 (antibody, human IgG4 S228P, kappa, V domains shown)
VH: QIQLVQSGPELKKPGETVKISCKASGYTFTTYGLSWVKQTPGKGLKWMGWINTYSGVPTYTDDFKGRFAFSLETSASTAYLQINNLKNEDTATYFCARPYDFDQVGFAYWGQGTLVTVSA
VL: SIVMTQTPKFLLVSAGDRVSITCKASQTVSSDVAWYQQKAGQSPKLLIYYASNRYTGVPDRFTGSGYGTDFTFTISTVQAEDLAVYFCQQDYSSPFTFGGGSKLEIKR
B1: the response of antibody #2 in experiment [1] was -0.39; in experiment [2] it was 0.09; in [3] it was 0.42; in [4] it was 0.04; in [6], -0.21; in experiment [7] it was -0.11. In experiment [8], the response of antibody #2 was 0.05. The molecule also returned a binding (fold over iso) (fold over iso) in experiment [5] of 7.31.

B2: J-04 (antibody, human IgG4 S228P, kappa, V domains shown)
VH: QVQLQQSGAELVRPGASVTLSCKASGYTFADYEIHWVKQTPVHGLEWIGAIDPETGGTAYNQKFKGKAILTADKSSSTAYMELRSLTSEDSAVYYCTRYYDYDDAMDYWGQGTSVTVSS
VL: QIVLTQSPAIMSASPGEKVTMTCSASSSVSFMHWYQQKSGTSPKRWIYGTSKLASGVPARFSGSGSGTSYSLTISSMEAEDAATYYCQQWNGNPFTFGSGTKLETKR
As for B2, the response of antibody #2 was 0.54 in experiment [1]; -0.31 in experiment [2]; -0.1 in experiment [3]; -0.3 in [4]; 0.54 in [6]; 0.46 in [7]. For the same molecule, the response of antibody #2 in experiment [8] is -0.07. In [9], this molecule had a binding (fold over iso) (fold over iso) of 2.07.

B3: J-19 (antibody, human IgG4 S228P, kappa, V domains shown)
VH: QVTLKESGPGILQPSHTLSLTCSFSGFSLNTYAMGVSWIRQPSGKGLEWLASIWWNGNKYNNPSLKSRLTVSKDTSNNQAFLKVTSVDTADTATYYCAHSRIIRFTDYVMDAWGQGASVTVSS
VL: DIQMTQSPASLSTFLGEPVTIECRASEDIYNDLAWYQQKPGKSPQLLIYNANSLHTGVPSRFSGSGSGTQYSLKINSLQSEDVASYFCQQYYDYPLTFGSGTKLEIKR
As for B3, the response of antibody #2 in experiment [1] was 0.71; in [2], 0.47; in experiment [3] it was 0.67; in [4], 0.27; in experiment [6], -0.21; in [7] it was -0.1. For the same molecule, the response of antibody #2 in experiment [8] turned out to be 0.15.

B4: J-11 (antibody, human IgG4 S228P, kappa, V domains shown)
VH: QVQLQQSGAELMKPGASVKLSCKATGYILTGYWIEWVKQRPGHGLEWIGEILPGSGSTNYNENFKGKATFTADTSSNTAYMQLSSLTTEDSAIYYCARAVLGYFDYWGQGTTLTVSS
VL: DIVMTQSHKFMSTSVGDRVSITCKASQDVSTAVAWYQQKPGQSPKLLIYWASTRHTGVPDRFTGSGSGTDYTLTISSVQAEDLALYYCHQHYSTYTFGGGTKLEIKR
Consider B4, for which the response of antibody #2 in experiment [1] was -0.24; in [2] it was 0.3; in [3] it was 0.51; in experiment [4], 0.1; in experiment [6], 0.28; in [7], -0.27. The molecule further yielded a response of antibody #2 in experiment [8] of 0.01.

B5: J-19.h4 (antibody, human IgG4 S228P, kappa, V domains shown)
VH: QVTLKESGPALVKPTHTLTLTCTFSGFSLNTYAMGVSWIRQPPGKALEWLASIWWNGNKYNNPSLKSRLTISKDTSKNQVVLTMTNMDPEDTATFYCAHSRIIRFTDYVMDAWGRGTTVTVSS
VL: DIVMTQSPSSLSASVGDTVTITCRASEDIYNDLAWYQQKPGKAPQLLLYNANSLHTGVPSRFSGSGSGTDYTLTISTLQPEDFATYYCQQYYDYPLTFGPGTKVHIKR
As for B5, the binding (fold over iso) (fold over iso) amounted to 2.14 in experiment [10] and 2.02 in experiment [11].

B6: J-19.h5 (antibody, human IgG4 S228P, kappa, V domains shown)
VH: QITLKESGPTLVKPTQTLTLTCTFSGFSLNTYAMGVSWIRQPPGKALEWLASIWWNGNKYNNPSLKSRLTVTKDTSKNQVVLTMTNMDPVDTATYYCAHSRIIAFTDYVMDAWGQGTLVTVSS
VL: DIQMTQSPSSLSTSVGDRVTITCRASEDIYNDLAWYQQKPGKAPKLLIYNANSLHTGVASRFSGSGSGTDFTFTISSLQPEDVATYFCQQYYDYPLTFGQGTKLEIKR
On to B6, for which, in [12], the Fold difference over J-19.h1 worked out at 1.91 fold, the Kd came out at 1.31 nM, the koff worked out at 0.00115 s⁻¹ and the kon stood at 876000 M⁻¹ s⁻¹. This molecule also had a fold higher affinity compared to J-19.h1 in experiment [13] of 2 fold.

B7: J-19.h6 (antibody, human IgG4 S228P, kappa, V domains shown)
VH: QITLKESGPTLVKPTQTLTLTCTFSGFSLNTYAMGVSWIRQPPGKALEWLASIWWNGNKYNNPSLKSRLTVTKDTSKNQVVLTMTNMDPVDTATYYCAHSRIIDFTDYVMDAWGQGTLVTVSS
VL: DIQMTQSPSSLSTSVGDRVTITCRASEDIYNDLAWYQQKPGKAPKLLIYNANSLHTGVASRFSGSGSGTDFTFTISSLQPEDVATYFCQQYYDYPLTFGQGTKLEIKR
For the molecule B7, in experiment [12], the Fold difference over J-19.h1 came to 3.47 fold, the Kd is 0.718 nM, the koff was determined as 0.000592 s⁻¹ and the kon was determined as 825000 M⁻¹ s⁻¹.

B8: J-19.h1 (antibody, human IgG4 S228P, kappa, V domains shown)
VH: QITLKESGPTLVKPTQTLTLTCTFSGFSLNTYAMGVSWIRQPPGKALEWLASIWWNGNKYNNPSLKSRLTVTKDTSKNQVVLTMTNMDPVDTATYYCAHSRIIRFTDYVMDAWGQGTLVTVSS
VL: DIQMTQSPSSLSTSVGDRVTITCRASEDIYNDLAWYQQKPGKAPKLLIYNANSLHTGVASRFSGSGSGTDFTFTISSLQPEDVATYFCQQYYDYPLTFGQGTKLEIKR
With B8, in experiment [14], the Fold difference over J-19.h1 was determined as 1 fold. In [15], this molecule came in with a Kd of 2.49 nM, a koff of 0.00176 s⁻¹ and a kon of 705000 M⁻¹ s⁻¹.

B9: J-19.h7 (antibody, human IgG4 S228P, kappa, V domains shown)
VH: QITLKESGPTLVKPTQTLTLTCTFSGFSLNTYAMGVSWIRQPPGKALEWLASIWWNGNKYNNPSLKSRLTVTKDTSKNQVVLTMTNMDPVDTATYYCAHSRIIEFTDYVMDAWGQGTLVTVSS
VL: DIQMTQSPSSLSTSVGDRVTITCRASEDIYNDLAWYQQKPGKAPKLLIYNANSLHTGVASRFSGSGSGTDFTFTISSLQPEDVATYFCQQYYDYPLTFGQGTKLEIKR
In the case of B9, in experiment [15], the Fold difference over J-19.h1 came to 2.73 fold, the Kd was determined as 0.912 nM, the koff is 0.000788 s⁻¹ and the on-rate (kon) is 865000 M⁻¹ s⁻¹.

One may read the Kd as the constant that tells how readily two partners part at equilibrium. In general, koff refers to the rate constant with which the complex falls apart. Lower therefore signals slow dissociation. A word on the kon: it is the second-order rate constant of association.
